From the RNAGym collection of RNA variant scans (doi:10.7554/elife.80360)

B1: Hairpin Ribozyme (parent)
chain: GUCCUCUUUCACGUGCGCGUGAAAGAGAGAAGUGAACCAGAGAAACACACGUUGUGGUAUAUUACCUGGUA

Variants of: B1
Assay: self-cleavage, relative activity (ratio to wild type); higher = more cleavage; co-transcriptional

In order of falling self-cleavage:
1. AUCCUCUUUCUCGUGCGCGUGAAAGAGAGAAGUGAACCAGAGAAACACACGUUGUGGUAUAUUACCUGGUA [G1A A11U]  0.302
2. AUCCUCUUUCACGUGCGCGUGAAAGAGAGCAGUGAACCAGAGAAACACACGUUGUGGUAUAUUACCUGGUA [G1A A30C]  0.291
3. AUCCUCUUUCACGUGCGCGUGAAAGAGAGAAGUGAACCAGAGAAACACACGUUGUGGUAUAUUUCCUGGUA [G1A A64U]  0.272
4. AUCUUCUUUCACGUGCGCGUGAAAGAGAGAAGUGAACCAGAGAAACACACGUUGUGGUAUAUUACCUGGUA [G1A C4U]  0.241
5. AUCCUCUUUCACGUGCGCGUGAAAGAGAGAAGUGAACCAGAGAAACACACGUUGUGGUGUAUUACCUGGUA [G1A A59G]  0.237
6. AUCCUCUUUUACGUGCGCGUGAAAGAGAGAAGUGAACCAGAGAAACACACGUUGUGGUAUAUUACCUGGUA [G1A C10U]  0.235
7. AUCCUCUUUCACGUGCGCGUGAAAGAGAGGAGUGAACCAGAGAAACACACGUUGUGGUAUAUUACCUGGUA [G1A A30G]  0.231
8. AUCCUCUUUCACGUGCGCGUGAAAGAGAGAAGUGAACCAGUGAAACACACGUUGUGGUAUAUUACCUGGUA [G1A A41U]  0.225
9. AUCCUCUUUCACGUGCGCGUGAAAGAGAGAAGUGAACCAGAGAAACACACGUUGUGGUCUAUUACCUGGUA [G1A A59C]  0.22
10. AUCCUCUUUCACGUGUGCGUGAAAGAGAGAAGUGAACCAGAGAAACACACGUUGUGGUAUAUUACCUGGUA [G1A C16U]  0.217
11. AUCCUCUUUCACGUGCGCGUGAAAGAGAGAAGUGAACCAGAGAAACACACGUUGUGGUAUAUUACCUGGUG [G1A A71G]  0.205
12. AUCCUCUUUCACGUGCGCGUGAAAGAGAGAAGUGAACCAGAGACACACACGUUGUGGUAUAUUACCUGGUA [G1A A44C]  0.2
13. AUCCUCUUUCACGUGCGCGUGAAAGAGAGAAGUGAACCAGAGGAACACACGUUGUGGUAUAUUACCUGGUA [G1A A43G]  0.2
14. AUCCUUUUUCACGUGCGCGUGAAAGAGAGAAGUGAACCAGAGAAACACACGUUGUGGUAUAUUACCUGGUA [G1A C6U]  0.195
15. AUCCUGUUUCACGUGCGCGUGAAAGAGAGAAGUGAACCAGAGAAACACACGUUGUGGUAUAUUACCUGGUA [G1A C6G]  0.193
16. AUCCUCUUUCACGUGCGCGUGAAAGAGAGAAGUGAAGCAGAGAAACACACGUUGUGGUAUAUUACCUGGUA [G1A C37G]  0.187
17. AUCCUCUUUCACGUGCGCGUGAAAGAGAGAAGUGAACCAGAGAAACACACGUUGUGGUAUAUUGCCUGGUA [G1A A64G]  0.187
18. AUCCUCUUUCACGUGCGAGUGAAAGAGAGAAGUGAACCAGAGAAACACACGUUGUGGUAUAUUACCUGGUA [G1A C18A]  0.185
19. AUCCUCUUUCACGUGCGCGUGAAAGAGAGAAGUGAACCAGAGAGACACACGUUGUGGUAUAUUACCUGGUA [G1A A44G]  0.167
20. AUCCUCUUUCACGUGCGCGUGAAAGAGAGAAGUGAACCAGAGAAACAAACGUUGUGGUAUAUUACCUGGUA [G1A C48A]  0.156
21. AUCCUCUUUCACGUGCGCGUGAAAGAGAGAAGUGAACCGGAGAAACACACGUUGUGGUAUAUUACCUGGUA [G1A A39G]  0.152
22. AUCCUCUUUCACGUGCGCGUGAAAGGGAGAAGUGAACCAGAGAAACACACGUUGUGGUAUAUUACCUGGUA [G1A A26G]  0.149
23. AUCCUCUUUCACGUGCGCGUGAAAGAGAGAAGUGAACCCGAGAAACACACGUUGUGGUAUAUUACCUGGUA [G1A A39C]  0.138
24. AUCCUCUUUCACGUGCGCGUGAAAGAGAGAGGUGAACCAGAGAAACACACGUUGUGGUAUAUUACCUGGUA [G1A A31G]  0.136
25. AUCCUCUUUCACGUGCGCGUGAAAGAGAGAAGUGAACCAGAGAAAAACACGUUGUGGUAUAUUACCUGGUA [G1A C46A]  0.134
26. AUCCUCUUUCACGUGCGCGUGAAAGAGAGAAGUGAACCAGAGAAACCCACGUUGUGGUAUAUUACCUGGUA [G1A A47C]  0.124
27. AUCCUCUUUCACGUGCGCGUGAAAGAGAGAAGUGAACCAGAGAAACGCACGUUGUGGUAUAUUACCUGGUA [G1A A47G]  0.123
28. AUCCUCUUUCACGUGCGCGUGAAAGAGAGAAGUGAACUAGAGAAACACACGUUGUGGUAUAUUACCUGGUA [G1A C38U]  0.115
29. AUCCUCUUUCACGUGCGCGUGCAAGAGAGAAGUGAACCAGAGAAACACACGUUGUGGUAUAUUACCUGGUA [G1A A22C]  0.11
30. AUCCUCUUUCACGUGCGCGUGAAAGUGAGAAGUGAACCAGAGAAACACACGUUGUGGUAUAUUACCUGGUA [G1A A26U]  0.11
31. AUCCUCUUUCACGUGCGCGUGUAAGAGAGAAGUGAACCAGAGAAACACACGUUGUGGUAUAUUACCUGGUA [G1A A22U]  0.109
32. AUCCUCUUUCACGUGCGCGUGAAAGAGAGAAGUGAACCAGAGAAGCACACGUUGUGGUAUAUUACCUGGUA [G1A A45G]  0.0977
33. AUCCUCUUUCACGUGCGGGUGAAAGAGAGAAGUGAACCAGAGAAACACACGUUGUGGUAUAUUACCUGGUA [G1A C18G]  0.0949
34. AUCCUCUUUCACGUGCGCGUGAAAGAGAGAAGUGAACCAGAGAAACACCCGUUGUGGUAUAUUACCUGGUA [G1A A49C]  0.0908
35. AUCCUCUUUCACGUGCGCGUGAAAGAGAGAAGUGAGCCAGAGAAACACACGUUGUGGUAUAUUACCUGGUA [G1A A36G]  0.088
36. AUCCUCUUUCACGUGCGCGUGAAAGAGAGAAGUGAACCAGAGUAACACACGUUGUGGUAUAUUACCUGGUA [G1A A43U]  0.0738
37. AUCCUCUUUCACGUGCGCGUGAAAGAGAGAAGUGAACCAGAGAAACACUCGUUGUGGUAUAUUACCUGGUA [G1A A49U]  0.061
38. AUCCUCUUUCACGUGCGCGUGAAAGAGAGAAGUGAACCAGAGAACCACACGUUGUGGUAUAUUACCUGGUA [G1A A45C]  0.0307
